Test results from US20220048993A1 (published 2022).
Where a chain is given by its changes, count along the chain named. Blank lines part the entries; values can stand above or below the binder they belong to.

Tests used:
[1] = biological target: T1, soluble cynomolgus FcRH5 protein fragment; assay: SPR; 25 °C
T1 chain: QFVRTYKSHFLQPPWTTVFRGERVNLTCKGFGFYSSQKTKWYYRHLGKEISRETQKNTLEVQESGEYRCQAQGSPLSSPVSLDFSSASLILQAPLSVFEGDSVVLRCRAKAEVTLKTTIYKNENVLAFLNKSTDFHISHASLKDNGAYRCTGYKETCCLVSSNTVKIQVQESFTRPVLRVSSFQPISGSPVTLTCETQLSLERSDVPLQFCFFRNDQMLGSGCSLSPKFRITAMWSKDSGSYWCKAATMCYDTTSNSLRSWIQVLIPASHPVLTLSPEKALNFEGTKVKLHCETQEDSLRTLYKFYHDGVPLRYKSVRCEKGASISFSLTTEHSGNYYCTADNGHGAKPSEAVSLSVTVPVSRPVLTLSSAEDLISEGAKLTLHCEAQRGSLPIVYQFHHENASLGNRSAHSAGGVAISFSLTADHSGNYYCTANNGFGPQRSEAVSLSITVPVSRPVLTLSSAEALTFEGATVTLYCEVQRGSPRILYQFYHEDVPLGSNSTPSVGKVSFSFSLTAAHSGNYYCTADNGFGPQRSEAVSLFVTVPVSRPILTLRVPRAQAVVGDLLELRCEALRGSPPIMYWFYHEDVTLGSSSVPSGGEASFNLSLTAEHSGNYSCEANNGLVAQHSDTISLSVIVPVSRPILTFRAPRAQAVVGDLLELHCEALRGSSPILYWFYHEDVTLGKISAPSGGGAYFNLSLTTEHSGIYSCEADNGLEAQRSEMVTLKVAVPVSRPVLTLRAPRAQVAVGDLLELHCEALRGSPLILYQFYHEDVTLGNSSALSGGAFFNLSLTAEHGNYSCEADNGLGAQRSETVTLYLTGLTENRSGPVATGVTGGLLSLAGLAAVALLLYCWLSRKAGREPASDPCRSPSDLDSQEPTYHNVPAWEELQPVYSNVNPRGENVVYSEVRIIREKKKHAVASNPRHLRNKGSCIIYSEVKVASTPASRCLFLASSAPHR

[2] = biological target: T2, soluble human FcRH5 protein fragment (UniProt Q96RD9 16-851); assay: SPR; 25 °C
T2 chain: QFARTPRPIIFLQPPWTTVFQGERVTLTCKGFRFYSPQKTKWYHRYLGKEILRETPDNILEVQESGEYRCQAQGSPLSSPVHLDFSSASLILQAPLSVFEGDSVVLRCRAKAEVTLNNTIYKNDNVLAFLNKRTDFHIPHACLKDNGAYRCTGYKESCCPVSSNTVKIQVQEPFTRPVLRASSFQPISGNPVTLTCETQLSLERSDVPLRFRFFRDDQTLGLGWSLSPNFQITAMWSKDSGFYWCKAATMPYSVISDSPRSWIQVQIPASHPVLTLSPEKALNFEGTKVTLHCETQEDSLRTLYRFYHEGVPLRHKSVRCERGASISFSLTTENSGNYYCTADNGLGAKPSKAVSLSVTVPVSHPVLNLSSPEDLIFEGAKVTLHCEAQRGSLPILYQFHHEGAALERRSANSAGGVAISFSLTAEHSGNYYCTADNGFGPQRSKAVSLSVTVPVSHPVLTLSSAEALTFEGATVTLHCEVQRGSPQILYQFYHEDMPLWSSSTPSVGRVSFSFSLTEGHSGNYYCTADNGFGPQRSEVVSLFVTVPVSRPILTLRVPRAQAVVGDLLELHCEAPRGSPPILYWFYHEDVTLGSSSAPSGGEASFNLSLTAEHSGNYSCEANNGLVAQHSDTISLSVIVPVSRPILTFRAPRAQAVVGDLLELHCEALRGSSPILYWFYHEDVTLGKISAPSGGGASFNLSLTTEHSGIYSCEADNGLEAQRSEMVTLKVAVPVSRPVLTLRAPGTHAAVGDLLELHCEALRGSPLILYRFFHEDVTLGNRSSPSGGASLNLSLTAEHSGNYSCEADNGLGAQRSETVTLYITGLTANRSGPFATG

[3] = biological target: 7D8.RbIgG; assay: SPR; 25 °C
[4] = biological target: T3, human FcRH3 (BIACORE analyte) (human, UniProt Q96P31 18-573); assay: SPR (1:1 binding); 25 °C
T3 chain: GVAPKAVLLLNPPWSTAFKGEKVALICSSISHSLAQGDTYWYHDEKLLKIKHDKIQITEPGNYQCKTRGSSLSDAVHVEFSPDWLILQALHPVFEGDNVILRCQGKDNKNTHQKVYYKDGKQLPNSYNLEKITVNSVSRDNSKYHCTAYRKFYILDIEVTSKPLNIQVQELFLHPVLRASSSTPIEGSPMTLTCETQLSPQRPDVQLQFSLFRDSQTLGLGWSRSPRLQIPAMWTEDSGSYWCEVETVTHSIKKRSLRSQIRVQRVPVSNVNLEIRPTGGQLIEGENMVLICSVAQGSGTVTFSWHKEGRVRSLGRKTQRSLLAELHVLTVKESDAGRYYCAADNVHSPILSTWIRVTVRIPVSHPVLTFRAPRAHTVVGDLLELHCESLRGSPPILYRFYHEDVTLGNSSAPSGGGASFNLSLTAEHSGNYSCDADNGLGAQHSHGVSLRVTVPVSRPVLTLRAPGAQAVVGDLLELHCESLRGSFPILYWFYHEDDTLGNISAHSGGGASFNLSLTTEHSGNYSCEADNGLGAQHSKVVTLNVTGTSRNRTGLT

[5] = biological target: T2, soluble human FcRH5 protein fragment; assay: SPR

B1: h7D8.L1H2 (antibody)
chain 1: EVQLVESGGGLVQPGGSLRLSCAVSGIDLSSYAMGWVRQAPGKGLEWIGTIGTGGTPYYASWAKGRFTISKDSSKNTVYLQMNSLRAEDTAVYFCARDMYTGSIYYDMWGQGTLVTVSS
chain 2: DAQLTQSPSSLSASVGDRVTITCQSSQSVFNNAQLSWYQQKPGKPPKLLIYDTSNLASGVPSRFSGSGSGTDFTLTISSLQPEDFATYYCLGAYTDDADNAFGQGTKVEIK
Kd [1]: 4.97 nM
Kd [2]: 1.26 nM

B3: Human FcRH5 (receptor)
chain: T2 chain
Kd [3]: 0.403 nM

B4: 1G7.v1.4/38E4.v1 TDB (bispecific antibody, V domains shown)
VH 1: EVQLVESGPGLVKPSETLSLTCTVSGFSLTRFGVHWVRQPPGKGLEWLGVIWRGGSTDYNAAFMSRLTISKDNSKNQVSLKLSSVTAADTAVYYCSNHYYGSSDYALDNWGQGTLVTVSS
VL 1: DIQMTQSPSSLSASVGDRVTITCKASQDVRNLVVWFQQKPGKAPKLLIYSGSYRYSGVPSRFSGSGSGTDFTLTISSLQPEDFATYYCQQHYSPPYTFGQGTKVEIK
VH 2: EVQLVQSGAEVKKPGASVKVSCKASGFTFTSYYIHWVRQAPGQGLEWIGWIYPENDNTKYNEKFKDRVTITADTSTSTAYLELSSLRSEDTAVYYCARDGYSRYYFDYWGQGTLVTVSS
VL 2: DIVMTQSPDSLAVSLGERATINCKSSQSLLNSRTRKNYLAWYQQKPGQSPKLLIYWTSTRKSGVPDRFSGSGSGTDFTLTISSLQAEDVAVYYCKQSFILRTFGQGTKVEIK
Kd [4]: 76.5 nM

Second part, the binder after the results:

Kd [3]: 1.89 nM
B2: Cyno FcRH5 (receptor)
chain: T1 chain

Kd [5]: 1.07 nM
B5: hu1G7.v93/38E4.v1 TDB (bispecific antibody, V domains shown)
VH 1: B4 VH 1 with L29T, M64V, S103P
VL 1: B4 VL 1 with R30S
VH 2: B4 VH 2
VL 2: B4 VL 2
